Data as given in the nanobody polyreactivity screen of Harvey et al. (2022).

Test: yeast display, Sf9 membrane polyspecificity reagent, FACS + sequencing; frameworks hold sequencing errors
How it was run: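 A synthetic nanobody library was expressed on Saccharomyces cerevisiae BJ5465 by galactose induction for 36–48 hours. The library was stained for 1 hour at 4 °C with 10% biotinylated, detergent-solubilized Sf9 membrane reagent and enriched with streptavidin microbeads before FACS. Low and high (top ~1%) gates were set on anti-HA fluorescence for expression and streptavidin fluorescence for reagent binding, and each polyreactivity label reflects the gate of origin.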

Row | Sequence | polyreactivity (PSR sort gate)
1 | QVQLVESGGGLVQAGGILRLSCAASGLTFYGYAMGWYRQAPGKERELVAAITRGGGSTYYADSVKGRFTISRDNAKNTVYLQMNSLKPDDTAVYYCAADQTGWGDTYYYWGQGTQVTVSS | low polyreactivity
2 | QVQLVESGGGLVQAGGILRLSCAASGRIFTSNPMGWYRQAPGKEREFVAAISGSGDGTYYADSVKGRFTISRDTAKNTVYLQMNSLKPEDTAVYYCAARRRGTYPYPMGYWGQGTQVTVSS | high polyreactivity
3 | QVQLVESGGGLVQAGGILRLSCAASGRIFVFYFMGWYRQAPGKERELVAAITRTGGSTYYADSVKGRFTISRDNAKNTVYLQMNSLKPEDTAFYYCATRYTRFRHFDYWGQGSQVTVSS | low polyreactivity
4 | QVQLVESGGGLVQAGGILRLSCAASGRTFAYNTMGWYRQAPGKERQLVAAISSDGSTNYADSVKGRFTISRDNAKNTVYLQMNSLKPEDTAVYYCAKGEGTGTSDTQVYEHDYWGQGTQVTVSS | low polyreactivity
5 | QVQLVESGGGLVQAGGILRLSCAASGRTFGRNAMGWYRQAQGKERELVAGISIGGGTTYYADSVKGRFTISRDNAKNTVYLQMNSLKPEDTAVYYCAARSWSYLHRYGYWGQGTLVTVSS | high polyreactivity
6 | QVQLVESGGGLVQAGGILRLSCAASGRTFTPYALGWYRQAAGKERDLVAAISSRGGSTYYADSVKGRFTISRDYAKNTVDLQMNSLKPEDTAVYYCNATQYPAADRYTNNYGGGFDYWGQGTQVTVSS | low polyreactivity
7 | QVQLVESGGGLVQAGGILRLSCAASGSIFRPYAMGWYRQAPGKERELVAAIRWSTRNTYYADSVKGRFTISRDNAKNTVYLQMNSLKPEDTAVYYCAAAYWPVVWFYYWGQGTQVTVSS | low polyreactivity
8 | QVQLVESGGGLVQAGGILRLSCAASGSIFYAYDKGWYRQAPGKERELVAGISSSDSTYYADSVKGRFTISRDNAKNTVYLQLNSLKPEDTAVYYCAADPVFAAAYIHLYGIYDTWGQGTQVTVSS | low polyreactivity
9 | QVQLVESGGGLVQAGGILRLSCAASGSILDLNAMGWYRQAPGKERELFAAISYSGDSTYYADSVKGRFTISRDNAKNTVYLQMNSLKPEDTAVYEGAAEVYGAVYDYWGQGTQVTVAS | low polyreactivity
10 | QVQLVESGGGLVQAGGILRLSCAASGSTFAGYAMGWYRQAPGKERELVATITYSGASTYYADSVKGRFTISRDNAKITVYLQMNSLKPEDTAVYYCGKKASYWWGYEYWGQGTQVTVSS | low polyreactivity
11 | QVQLVESGGGLVQAGGILRLSCAASGSTFGFNAMGWYRQAPGKERELVASITSGDSTYYADSVKGRFTISRDNAKNTVYLQMNSLKPEDTAVYYCAKVGGGGQAGDNPILSDYWGQGTQVTVSS | low polyreactivity
12 | QVQLVESGGGLVQAGGILRLSCAASGSTFRLNAMVWYRQEPGKERELVASIRWSVGITYYADSVKGRFTISLDNSKNTFYLQMNSLKPEDTAVYYCANGDTNWRYYYWGQGTQVTVSS | high polyreactivity
13 | QVQLVESGGGLVQAGGILRLSCAASGSTFSPYAMGWYRQAPGKERELVANITISGGSTYYADSVKGRFTISRDNAKNTVYLQMNSLKAEDTAVYYCNADSLIRWLFTVVIFDYWGQGTQVTVSS | low polyreactivity
14 | QVQLVESGGGLVQAGGILRLSCAASGSTFSSNAMGWYRQAPGKERELVAAISVNGGSTNYADSVKVRFTISRDNAKNTVYLQMNSLKPEDTAVYYCAAEPAKVAFYRGDYWGQGTEVTVSS | low polyreactivity
15 | QVQLVESGGGLVQAGGILRLSCAASGSTFTSYAMGWYRQAPGKERELVAAISKSGGSTYYADSVKGRFTISRDNAKNTVYLQMNSLKPEDTALYYCAARYNVRSYSTSRFYYWGQGTLVTVSS | low polyreactivity
16 | QVQLVESGGGLVQAGGILRLSCAASGSTFYGYAMGWYRQAPGKERELVAAITRSGGSTYYADSVKGRFTISRDNAKNTVYLQMNSLKPEDTEVYYCNKYGYKGGVGYDYWGQGTQVTVSS | high polyreactivity
17 | QVQLVESGGGLVQAGGILRLSCAPSGRIISWNPIGLYRQAPGQERELVADITYSGGSTYYADSVKGRFTISRDNAKNTVYLQMNSLKPEDTAVYDCNADPRWYHFEYGYWGQGTQVTVSS | high polyreactivity
18 | QVQLVESGGGLVQAGGILRLSCAPSGSTFRANAMGWYRQAPGKERELVAAITSGGSTNYADSVKGRFTISRDNAKNTVYLQRNSLKPEDTAVYYCADESYQEHSFYVYYGYDYWGQGTQVTVSS | low polyreactivity
19 | QVQLVESGGGLVQAGGILRLSCASSGFTFSLYDMGWYRQAPRKDRELVADINGSGGSTYYADSVKGRFTISRDNAKNTVYLQLNILKPEDTAVYYCAAGPPSRWWYIVDYGYWGQGTQVTVSS | high polyreactivity
20 | QVQLVESGGGLVQAGGILRLSCGASGIIFDGYAMGWSRQAPGKERELVAAIDGTGDSTYYADSVKGRFTISRDNAKNTVYLQMNSLKPEDTAVYYCGAEYDYRWWYGYDYWGQGTQVTVSW | high polyreactivity
21 | QVQLVESGGGLVQAGGILRLSCPASGRTFVNYAMGWYRQQPGKESELVAAITSRGGSTYYADSVKGRFTISRDNAKNSVFLQMNSLKPEDTAFYYCAAGEYYYWGQGTQVTVSS | high polyreactivity
22 | QVQLVESGGGLVQAGGILRLSSAASGSIFSNYAMGWYRQAPGKERELVAAINRSGGSTYYADSVKGRFTISRDNAKNTVYLQITSLKPDDTAVYYCNAVRLYYCAGGQFQYHFWGQGTQVTVSS | high polyreactivity

Row | Sequence | polyreactivity (PSR sort gate)
23 | QVQLVESGGGLVQAGGILRLSSAASGSTFFNYAMGWYRQAPGKERELVAAISSSGGRTYYADSVKGRFTISRDNAKNTVYLQMNSLKPEDTSVYYCAASGRKHGMNYWGQGTQVTVSS | high polyreactivity
24 | QVQLVESGGGLVQAGGILRVSCAASGYTFLGYAMGWYRQPPGKEMELVAVISRTGGRTYYADSVKGRFTISRDNAKNTVYLQMNSLKPEDTAVYYCATEDYRGPEYDYWGQGTQVNVSS | high polyreactivity
25 | QVQLVESGGGLVQAGGILSLSCAASGSTFPYNAMGWYRQAPGIERQLVAAISSGGSTYYADSVKGRFTNSRDNAKNTVYLMMNRLKPEDTAVYYCAASWGKYIRSWGYGYWGQGTLVTVSS | high polyreactivity
26 | QVQLVESGGGLVQAGGILSLSCAASGSTLNSYAMGWNRPAPGKERELVAAIRWSGSSTYYADSVKGRFTISRDNAKNSVFLQMNSLKPQDTAVYYCAKGYSYGRPWDIYYYCGQGTQVTVSS | low polyreactivity
27 | QVQLVESGGGLVQAGGMRRLSCAASGRTFGQYVMGWSRQAPGKERELVAAISRRGGSTYYADSVKGRFTISRDNAKNTVYLQMNSLKPEDTAVYYCAPAGTYTGGEGYLGQGTQVTVSS | high polyreactivity
28 | QVQLVESGGGLVQAGGRHRLICAATGITYKSNPMGWYIQAPGTETELVAAIARRASSTYYADSVKGRFTISRDNAKNTVYLHMNSLNPEDTAVYYCNAVLPVYRTNLDYWGQGTQVTVSS | high polyreactivity
29 | QVQLVESGGGLVQAGGRHRLTCAASGYTFDWYTMGWYRQAPGTERELVAAISASGVRTYYADSVKGRFTISSDNAKNSVYLQMNSLKPEDTAVYYCYRVYSTSRITEYEFDYWGQGTQVTVSS | low polyreactivity
30 | QVQLVESGGGLVQAGGRLLLSCAASGSTFTHYAMGWYRQAPGKERELVPAISWGAGSTYYADSVKGRFTNSRDNAKNTVYLQMNSLKPEDTAVYYCAAYLYRYGHKYYSWGQGTQVTVSS | high polyreactivity
31 | QVQLVESGGGLVQAGGRLPLSCAASGFIFGDYTMGWYRQAPGKERELVASISRRGGSTTYADSVKGRFTISRDNAMNTVYLQMNSLKPEDTAVYYCAARSRPSGSYNRHGPVDYWGQGTQVTVSS | high polyreactivity
32 | QVQLVESGGGLVQAGGRLRISCAASGFTFDLYAMGWYRQAPGKERELVAAISWSGGSTRYADSVKGRFTISRDNAKNTVYLQMNSLKPEDTAVSYCARQPRLYFKGKLYGYWGQGTQVTVSS | high polyreactivity
33 | QVQLVESGGGLVQAGGRLRISCAASGSIFYLYARGWYRQAPGKERELVPVITGSGGSTYYADSVKGRFTISRDNSKYTVYLQMNSLKPVDTAVYYGAADYYWGYDWGQGTQVTVSS | low polyreactivity
34 | QVQLVESGGGLVQAGGRLRISCAASGSTFLDNAMGWYRQAPGKERELVASITSSGGNTYYADSVKGRFTISRDNAKNTVYLQMNRLKPEDTAVYYCAADAASYWGSNSANYDYDYWGQGTQVTVSS | low polyreactivity
35 | QVQLVESGGGLVQAGGRLRISCAASVRIFGVNAMGWYRQAPGKERELVAVISSGGSTYYADSVKGRFTISRDNAKNTVYLQMNSLNPEDTAVYSCYAVVGRWFPYNLSDYWGQGTQVTVSS | low polyreactivity
36 | QVQLVESGGGLVQAGGRLRLGCAASGSTYLYNAMGLYRQAPGKERELVAAISWTGGSTYYADSVKARYTISRDNAKNTVYLQMNSLKPEDTAVYYCNSLSVPDYDYWGHGTQVTVSS | high polyreactivity
37 | QVQLVESGGGLVQAGGRLRLICAASARTLDRNAIGWYRQAPGEEREFVAAISSSGDSTYADSVKGRFTISRDNAKNTVYLQMNSLKPEDTAVYYCNAEEKVTYSASYFWVYDAMDHWGQGTQVTVSS | low polyreactivity
38 | QVQLVESGGGLVQAGGRLRLICAASGRIYGYNTMGWYRQAPGKERDFDAAINSGGRTYYADSVKGRFTISRDNAKNTVYLQMNSLKPEDTAVYYCAAGKGRWISGLYYGARYDYWGQGTQVTVSS | high polyreactivity
39 | QVQLVESGGGLVQAGGRLRLICAASGSILRYAMGWYIQAPGKERELVAAISYGGGSTYYADSVKGRFTISRDNAKNTVYLQMNSLKPEDTAVYYCNARQYVWYPYEYWGQGTQVTVSS | high polyreactivity
40 | QVQLVESGGGLVQAGGRLRLNCAASVITFPYNAMGWYRQATGKERELVAAITRSGASTYYADSVKGRFTISRDNSKNTVYVQMNSLKPEDTAVYYCAAKVIGRPRPYYYWGQGTQVTVSS | high polyreactivity
41 | QVQLVESGGGLVQAGGRLRLSCAASGFIFAWYAMGWYRQAPGKEMELVAAITWSAGSTYYADSVKGRFTISRDNAKNTVFLQMNSLKPEVTAVYYCAADAWYYSIYRGGDFWGQGTQVTVSS | low polyreactivity
42 | QVQLVESGGGLVQAGGRLRLSCAASGFIFDSNTMGWYRQAPGKERELVAGITRRGGSTYYADSVKGRFTISRDNAKNSVYLQMNSLNPEDTAVYYCATAGTYTGGEGYWGQGTQVTVSS | high polyreactivity
43 | QVQLVESGGGLVQAGGRLRLSCAASGFIFPVYAMGWYRQAPGKERELVASITTGGSTNYADSVKGRFTISRDNAKNTVYLQMNSLKPEDTAVYYCNKDTPASLANQYNYWGQGTQVTVSS | low polyreactivity
